Data: patent US20040082509A1

Target: JNKs
Assay: cell-based or functional assay

| Binder | phosphorylation of GST-jun (1-89) by JNKs pulled down from UV-irradiated HeLa or IL-1β treated βTC-3 cell extracts; peptide at 25 µM [µM] |
| --- | --- |
| GRKKRRQRRRPPEEPHKHRPTTLRLTTLGAQDS [L-TAT-IB2 peptide] | 25 |
| GRKKRRQRRRPPDTYRPKRPTTLNLFPQVPRSQDT [L-TAT-IB1 peptide] | 25 |
